Reference: US20190309093A1
One block for each substance: values may come before it.

How the values were obtained:
[1] = target: CD3 on Jurkat luciferase reporter cells (UniProt P07766); experiment: flow cytometry of Jurkat_NFAT_Luc2P cells, PE-A; fold over hIgG
[2] = target: CD3 on Jurkat luciferase reporter cells (UniProt P07766); experiment: flow cytometry of Jurkat_NFAT_Luc2P cells; reference value, printed in all three panels on the left
[3] = target: CD3 on Jurkat luciferase reporter cells (UniProt P07766); experiment: flow cytometry of Jurkat_NFAT_Luc2P cells, FITC-A; fold over hIgG

- Fold [1]: 58
Substance: Commercial CD3e(HiT3a) (antibody)

- Fold [2]: 1
Substance: hIgG (antibody)

- Fold [3]: 45
Substance: mOKT3 (antibody)
